The record followed here is US20110294748A1 (Janssen / Centocor, published 2011).

Test [1] has as its target T1, soluble IGF1R (sIGF1R), extracellular domain of human insulin-like growth factor 1 receptor, carboxy-terminal … (human, UniProt P08069 31-932).
T1 construct: Bought from R&D Systems; GenBank NP-000866 is printed for the whole receptor; also called IFG1R
Put plainly: ELISA, culture supernatant on 2 µg/ml coated sIGF1R, Attophos detection. As to the method: The binding of purified peptide-AP fusion proteins to sIGF1R was assessed using ELISA against immobilized sIGF1R. Briefly, bacteria transformed with each peptide-AP fusion expression vector were grown overnight and the following day the cultures were clarified by centrifugation at 4,500 rpm, 4° C. The supernatants were collected and 75 μl of each supernatant was assayed for binding to 2 μg/ml sIGF1R immobilized on ELISA plates. The bound peptides were detected using the Attophos Substrate (Roche, Indianapolis, Ind.) following the manufacturer's recommendation and read using a Molecular Devices M5 plate reader.

Test [2] has as its target T1, soluble IGF1R (sIGF1R), extracellular …. Put plainly: ELISA, serially diluted PG-peptide fusion on coated sIGF1R. The method, then:
Relative binding affinities of the PG-peptide fusions for sIGF1R were measured using ELISA. The Kds were determined using GraphPad Prism 4 software with a one site binding equation. 100 μl of 2 μg/ml sIGF1R(R&D Systems, Minneapolis, Minn.) in Dulbecco's Phosphate Buffer Saline (DPBS (−/−)) was coated onto a 96 well Black Maxisorp plates (Nunc, Rochester, N.Y.) overnight at 4° C. The plates were washed with TBST and the wells blocked with 200 μl/well Starting Block T20 (TBS) (Pierce, Rockford, Ill.) for 1 hr, room temperature with 300 rpm shaking. 75 μl/well of purified, serially diluted PG-peptide fusions, starting concentration 40 μM, was added into the wells and incubated for 1 h, room temperature with 300 rpm mixing; the volume was brought up to 100 μl with Starting Block T20. The plates were washed 3× with TBST and then probed with 100 μl/well Peroxidase labeled-Rabbit antibody (1:5000) (Rockland, Gilbertsville, Pa.), washed, and the signal was detected using 100 μl/well POD substrate (Roche, Indianapolis, Ind.). Chemiluminescence was detected using a Molecular Devices M5 plate reader.
The fusion protein with peptide clone 17 was unique in its binding profile in that the binding curve was bellshaped. […]

B1: peptide-Alkaline phosphatase-His6 fusion protein of clone 14 (other)
chain: VECDTPSITFSPGLEALFWNTCSPTPEMPVLENRAAQGDITTPGGARRLTGDQTAALRDSLSDKPAKNIILLIGDGMGDSEITAARNYAEGAGGFFKGIDALPLTGQYTHYALNKKTGKPDYVTDSAASATAWSTGVKTYNGALGVDIHEKDHPTILEMAKAAGLATGNVSTAELQGATPAALVAHVTSRKCYGPSATSEKCPGNALEKGGKGSITEQLLNARADVTLGGGAKTFAETATAGEWQGKTLREQAQTRGYQLVSDAASLNSVTEANQQKPLLGLFADGNMPVRWLGPKATYHGNIDKPAVTCTPNPQRNDSVPTLAQMTDKAIELLSKNEKGFFLQVEGASIDKQNHAANPCGQIGETVDLDEAVQRALEFAKKEGNTLVIVTADHAHASQIVAPDTKAPGLTQALNTKDGAVMVMSYGNSEEDSQEHTGSQLRIAAYGPHAANVVGLTDQTDLFYTMKAALGLKVPGGSGGGSGGGSGGGSGTPEMPVLENRAAQGDITTPGGARRLTGDQTAALRDSLSDKPAKNIILLIGDGMGDSEITAARNYAEGAGGFFKGIDALPLTGQYTHYALNKKTGKPDYVTDSAASATAWSTGVKTYNGALGVDIHEKDHPTILEMAKAAGLATGNVSTAELQGATPAALVAHVTSRKCYGPSATSEKCPGNALEKGGKGSITEQLLNARADVTLGGGAKTFAETATAGEWQGKTLREQAQTRGYQLVSDAASLNSVTEANQQKPLLGLFADGNMPVRWLGPKATYHGNIDKPAVTCTPNPQRNDSVPTLAQMTDKAIELLSKNEKGFFLQVEGASIDKQNHAANPCGQIGETVDLDEAVQRALEFAKKEGNTLVIVTADHAHASQIVAPDTKAPGLTQALNTKDGAVMVMSYGNSEEDSQEHTGSQLRIAAYGPHAANVVGLTDQTDLFYTMKAALGLKVPGNSHHHHHH
notes: Tested as bacterial culture supernatant; also called peptide-AP fusion clone 14
B1: the binding result in test [1] is reported as “binds”.

B2: peptide-Alkaline phosphatase-His6 fusion protein of clone 17 (other)
chain: DDIDEFLHQLHNLVNNVHTPEMPVLENRAAQGDITTPGGARRLTGDQTAALRDSLSDKPAKNIILLIGDGMGDSEITAARNYAEGAGGFFKGIDALPLTGQYTHYALNKKTGKPDYVTDSAASATAWSTGVKTYNGALGVDIHEKDHPTILEMAKAAGLATGNVSTAELQGATPAALVAHVTSRKCYGPSATSEKCPGNALEKGGKGSITEQLLNARADVTLGGGAKTFAETATAGEWQGKTLREQAQTRGYQLVSDAASLNSVTEANQQKPLLGLFADGNMPVRWLGPKATYHGNIDKPAVTCTPNPQRNDSVPTLAQMTDKAIELLSKNEKGFFLQVEGASIDKQNHAANPCGQIGETVDLDEAVQRALEFAKKEGNTLVIVTADHAHASQIVAPDTKAPGLTQALNTKDGAVMVMSYGNSEEDSQEHTGSQLRIAAYGPHAANVVGLTDQTDLFYTMKAALGLKVPGGSGGGSGGGSGGGSGTPEMPVLENRAAQGDITTPGGARRLTGDQTAALRDSLSDKPAKNIILLIGDGMGDSEITAARNYAEGAGGFFKGIDALPLTGQYTHYALNKKTGKPDYVTDSAASATAWSTGVKTYNGALGVDIHEKDHPTILEMAKAAGLATGNVSTAELQGATPAALVAHVTSRKCYGPSATSEKCPGNALEKGGKGSITEQLLNARADVTLGGGAKTFAETATAGEWQGKTLREQAQTRGYQLVSDAASLNSVTEANQQKPLLGLFADGNMPVRWLGPKATYHGNIDKPAVTCTPNPQRNDSVPTLAQMTDKAIELLSKNEKGFFLQVEGASIDKQNHAANPCGQIGETVDLDEAVQRALEFAKKEGNTLVIVTADHAHASQIVAPDTKAPGLTQALNTKDGAVMVMSYGNSEEDSQEHTGSQLRIAAYGPHAANVVGLTDQTDLFYTMKAALGLKVPGNSHHHHHH
notes: Tested as bacterial culture supernatant; also called peptide-AP fusion clone 17
With B2, the binding result in test [1] is given as “binds”.

B3: peptide-Alkaline phosphatase-His6 fusion protein of clone 16 (other)
chain: AGCPSPMPPVDPGFYSAIVQLCRETPEMPVLENRAAQGDITTPGGARRLTGDQTAALRDSLSDKPAKNIILLIGDGMGDSEITAARNYAEGAGGFFKGIDALPLTGQYTHYALNKKTGKPDYVTDSAASATAWSTGVKTYNGALGVDIHEKDHPTILEMAKAAGLATGNVSTAELQGATPAALVAHVTSRKCYGPSATSEKCPGNALEKGGKGSITEQLLNARADVTLGGGAKTFAETATAGEWQGKTLREQAQTRGYQLVSDAASLNSVTEANQQKPLLGLFADGNMPVRWLGPKATYHGNIDKPAVTCTPNPQRNDSVPTLAQMTDKAIELLSKNEKGFFLQVEGASIDKQNHAANPCGQIGETVDLDEAVQRALEFAKKEGNTLVIVTADHAHASQIVAPDTKAPGLTQALNTKDGAVMVMSYGNSEEDSQEHTGSQLRIAAYGPHAANVVGLTDQTDLFYTMKAALGLKVPGGSGGGSGGGSGGGSGTPEMPVLENRAAQGDITTPGGARRLTGDQTAALRDSLSDKPAKNIILLIGDGMGDSEITAARNYAEGAGGFFKGIDALPLTGQYTHYALNKKTGKPDYVTDSAASATAWSTGVKTYNGALGVDIHEKDHPTILEMAKAAGLATGNVSTAELQGATPAALVAHVTSRKCYGPSATSEKCPGNALEKGGKGSITEQLLNARADVTLGGGAKTFAETATAGEWQGKTLREQAQTRGYQLVSDAASLNSVTEANQQKPLLGLFADGNMPVRWLGPKATYHGNIDKPAVTCTPNPQRNDSVPTLAQMTDKAIELLSKNEKGFFLQVEGASIDKQNHAANPCGQIGETVDLDEAVQRALEFAKKEGNTLVIVTADHAHASQIVAPDTKAPGLTQALNTKDGAVMVMSYGNSEEDSQEHTGSQLRIAAYGPHAANVVGLTDQTDLFYTMKAALGLKVPGNSHHHHHH
notes: Tested as bacterial culture supernatant; also called peptide-AP fusion clone 16
In the case of B3, the binding result in test [1] is given as “binds”.

B4: peptide-Alkaline phosphatase-His6 fusion protein of clone 12 (other)
chain: SNCPPLDMRLTELCVMTPEMPVLENRAAQGDITTPGGARRLTGDQTAALRDSLSDKPAKNIILLIGDGMGDSEITAARNYAEGAGGFFKGIDALPLTGQYTHYALNKKTGKPDYVTDSAASATAWSTGVKTYNGALGVDIHEKDHPTILEMAKAAGLATGNVSTAELQGATPAALVAHVTSRKCYGPSATSEKCPGNALEKGGKGSITEQLLNARADVTLGGGAKTFAETATAGEWQGKTLREQAQTRGYQLVSDAASLNSVTEANQQKPLLGLFADGNMPVRWLGPKATYHGNIDKPAVTCTPNPQRNDSVPTLAQMTDKAIELLSKNEKGFFLQVEGASIDKQNHAANPCGQIGETVDLDEAVQRALEFAKKEGNTLVIVTADHAHASQIVAPDTKAPGLTQALNTKDGAVMVMSYGNSEEDSQEHTGSQLRIAAYGPHAANVVGLTDQTDLFYTMKAALGLKVPGGSGGGSGGGSGGGSGTPEMPVLENRAAQGDITTPGGARRLTGDQTAALRDSLSDKPAKNIILLIGDGMGDSEITAARNYAEGAGGFFKGIDALPLTGQYTHYALNKKTGKPDYVTDSAASATAWSTGVKTYNGALGVDIHEKDHPTILEMAKAAGLATGNVSTAELQGATPAALVAHVTSRKCYGPSATSEKCPGNALEKGGKGSITEQLLNARADVTLGGGAKTFAETATAGEWQGKTLREQAQTRGYQLVSDAASLNSVTEANQQKPLLGLFADGNMPVRWLGPKATYHGNIDKPAVTCTPNPQRNDSVPTLAQMTDKAIELLSKNEKGFFLQVEGASIDKQNHAANPCGQIGETVDLDEAVQRALEFAKKEGNTLVIVTADHAHASQIVAPDTKAPGLTQALNTKDGAVMVMSYGNSEEDSQEHTGSQLRIAAYGPHAANVVGLTDQTDLFYTMKAALGLKVPGNSHHHHHH
notes: Tested as bacterial culture supernatant; also called peptide-AP fusion clone 12
Turning to B4, in test [1], the binding result was “binds”.

B5: PG-peptide fusion of clone 17 (protein G IgG domain with peptide SEQ ID NO: 13 at its C-terminus) (other)
chain: YKLILNGKTLKGETTTEAVDAATAEKVFKQYANDNGVDGEWTYDDATKTFTVTEDDIDEFLHQLHNLVNNVH
notes: also called PG-peptide fusion clone 17; fusion protein with peptide clone 17
On to B5, for which the binding result in test [2] is “binds”.
